# Measurements reported in paper PMC7554088.
# B1: Rev7, accessory subunit of S. cerevisiae DNA polymerase ζ, P38927 1-245 (natural protein)
# chain: MNRWVEKWLRVYLKCYINLILFYRNVYPPQSFDYTTYQSFNLPQFVPINRHPALIDYIEELILDVLSKLTHVYRFSICIINKKNDLCIEKYVLDFSELQHVDKDDQIITETEVFDEFRSSLNSLIMHLEKLPKVNDDTITFEAVINAIELELGHKLDRNRRVDSLEEKAEIERDSNWVKCQEDENLPDNNGFQPPKIKLTSLVGSDVGPLIIHQFSEKLISGDDKILNGVYSQYEEGESIFGSLF
# Target: T1, Rev7, accessory subunit of S. cerevisiae DNA polymerase ζ (S. cerevisiae), P38927
# T1 chain: B1 chain
# Experiment: cryo-EM structure
# Details: remark: other sources report otherwise
binder,measurement,value
B1,stoichiometry N,2
